Reference: patent publication US20190276873A1

Tests used:
Experiment in all cases: cell-based or functional assay
[1] = biological target: Sensor 1: NNano-SV2C-p25-CNano (human)
[2] = biological target: Sensor 2: NNano-p25-CNano (human)
[3] = biological target: In vivo assay construct: Nnano(1-159)-Firefly(Full length)-GGGGS-p25(FullLength)-Cnano(160-170) (Photinus pyralis; human)
[4] = biological target: Sensor 3: NNano-hVAMP1-CNano (human)

In vivo assay construct: Nnano(1-159)-Firefly(Full length)-GGGGS-p25(FullLength)-Cnano(160-170) (Photinus pyralis; human), sequence (P08659 other isoform, or with tags, fused parts or gaps): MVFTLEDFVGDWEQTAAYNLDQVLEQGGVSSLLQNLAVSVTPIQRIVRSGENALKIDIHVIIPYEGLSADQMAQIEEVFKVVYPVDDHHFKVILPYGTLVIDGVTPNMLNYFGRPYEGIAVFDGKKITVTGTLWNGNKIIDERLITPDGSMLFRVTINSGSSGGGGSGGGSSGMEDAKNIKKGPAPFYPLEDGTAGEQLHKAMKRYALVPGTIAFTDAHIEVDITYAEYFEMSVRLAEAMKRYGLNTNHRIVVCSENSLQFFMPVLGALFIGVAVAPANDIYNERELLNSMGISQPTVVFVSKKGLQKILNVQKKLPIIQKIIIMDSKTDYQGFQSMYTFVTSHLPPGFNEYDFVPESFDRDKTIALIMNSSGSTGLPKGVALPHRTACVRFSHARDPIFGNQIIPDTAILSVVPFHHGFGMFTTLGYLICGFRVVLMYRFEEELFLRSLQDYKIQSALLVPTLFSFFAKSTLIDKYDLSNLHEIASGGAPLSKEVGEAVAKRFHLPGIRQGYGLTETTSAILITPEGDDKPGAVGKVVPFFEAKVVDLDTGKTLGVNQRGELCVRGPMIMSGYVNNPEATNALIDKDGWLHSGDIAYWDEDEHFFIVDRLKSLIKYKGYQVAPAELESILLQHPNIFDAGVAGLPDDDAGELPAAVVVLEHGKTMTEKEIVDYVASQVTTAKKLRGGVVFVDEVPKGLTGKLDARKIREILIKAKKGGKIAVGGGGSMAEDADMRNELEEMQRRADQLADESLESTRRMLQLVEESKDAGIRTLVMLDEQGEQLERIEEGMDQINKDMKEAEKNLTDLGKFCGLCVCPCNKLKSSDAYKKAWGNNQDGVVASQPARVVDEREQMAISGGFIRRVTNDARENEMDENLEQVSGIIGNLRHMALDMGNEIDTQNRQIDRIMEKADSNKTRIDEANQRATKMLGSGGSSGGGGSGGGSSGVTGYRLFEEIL

Substance | EC50 (percentage of luminescence of NANOLUC luciferase, after 4 h at 37 C) [1] [pM] | EC50 (percentage of luminescence of NANOLUC luciferase, after 24 h at 37 C) [1] [pM] | fold sensitivity (EC50) against the sensor without SV2C [1] [fold] | EC50 (percentage of luminescence of NANOLUC luciferase, after 4 h at 37 C) [2] [pM] | EC50 (percentage of luminescence of NANOLUC luciferase, after 24 h at 37 C) [2] [pM] | EC50 (ratio NANOLUC/Firefly in lysates of neurons, 48 h after toxin) [3] [pM] | EC50 (percentage of luminescence of NANOLUC luciferase, after 4 h at 37 C) [4] [pM] | EC50 (percentage of luminescence of NANOLUC luciferase, after 24 h at 37 C) [4] [pM]
Botulinum neurotoxin A (BoNT/A) (from UniProt P0DPI0 2-1296) (enzyme) | 9.73 | 7.86 | 5 | 48.3 | 35.9 | 2.9 |  | 
Botulinum neurotoxin B (BoNT/B) (from UniProt P10844 2-1291) (enzyme) |  |  |  |  |  |  | 75.7 | 3.9
